This is an account of results in article PMC10127594.

This series addresses T1, Gac (Borrelia burgdorferi sensu stricto B31) (UniProt O51396).
T1 sequence: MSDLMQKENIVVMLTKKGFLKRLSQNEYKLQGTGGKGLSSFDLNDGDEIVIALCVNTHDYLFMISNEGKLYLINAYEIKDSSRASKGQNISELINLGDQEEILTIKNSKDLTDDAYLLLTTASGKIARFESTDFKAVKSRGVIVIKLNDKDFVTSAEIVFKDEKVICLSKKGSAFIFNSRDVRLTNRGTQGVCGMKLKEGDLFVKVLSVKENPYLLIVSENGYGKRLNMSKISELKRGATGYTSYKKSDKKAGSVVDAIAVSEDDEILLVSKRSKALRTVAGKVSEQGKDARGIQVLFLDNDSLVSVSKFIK
In words: competition. Conditions: EMSA: 50 mM Tris-HCl (pH not stated), 25 mM KCl, 10% glycerol, 0.01% Tween 20, 100 nM DTT, 1 mM PMSF; 15 min, room temperature; 10 nM probe, 25 nM Gac. For orientation: A gel shift assay detects complexes by their altered migration in electrophoresis.

empty pCR2.1 amplicon yielded a binding signal (fold reduction) of less than 1.3.
Turning to B31 ospC operator/promoter, the binding signal (fold reduction) turned out to be 2.6.
The same measure for “GTATTAAGTTATATTAATATAAAAGGAGAATATATT (double strand) [ospAB competitor]”: less than 1.3; for Ip89 ospC operator/promoter: 2.
“AACAGGCAAAAGGATTTGCCAAAGTCAGAAATT (double strand) [flaB competitor]” yielded a binding signal (fold reduction) of less than 1.3.
